Test [1] concerns the target SGHRT-HA (human SGHRT, C-terminal HA) (human). The experiment in a line: SDS-PAGE and Western blot.
The target in test [2] is SGHRT-FLAG (human SGHRT, C-terminal FLAG) (human). Put plainly: SDS-PAGE and Western blot.

In the case of “SGHRT-HA (human SGHRT, C-terminal HA) (peptide)”, the stoichiometry N in test [1] came to 2.

As for “SGHRT-FLAG (human SGHRT, C-terminal FLAG) (peptide)”, in test [2], the stoichiometry N came out at 2.

Source of the values: article doi:10.1101/2021.10.24.465637.
